Data from publication PMC2873477, “Reconstruction of xylose utilization pathway and regulons in Firmicutes” (BMC Genomics, 2010).

Assays:
[1] = biological target: T1, XylR (Clostridium acetobutylicum ATCC 824) (UniProt Q97D10); assay: EMSA; conditions: 10 mM Tris pH 7.5, 50 mM KCl, 1 mM DTT, 2.5% glycerol, 5 mM MgCl2, 0.05% NP-40, 2 ug salmon sperm DNA in 20 ul, 28 C 20 min; 6% native PAGE 0.5x TBE at 4 C
T1 sequence: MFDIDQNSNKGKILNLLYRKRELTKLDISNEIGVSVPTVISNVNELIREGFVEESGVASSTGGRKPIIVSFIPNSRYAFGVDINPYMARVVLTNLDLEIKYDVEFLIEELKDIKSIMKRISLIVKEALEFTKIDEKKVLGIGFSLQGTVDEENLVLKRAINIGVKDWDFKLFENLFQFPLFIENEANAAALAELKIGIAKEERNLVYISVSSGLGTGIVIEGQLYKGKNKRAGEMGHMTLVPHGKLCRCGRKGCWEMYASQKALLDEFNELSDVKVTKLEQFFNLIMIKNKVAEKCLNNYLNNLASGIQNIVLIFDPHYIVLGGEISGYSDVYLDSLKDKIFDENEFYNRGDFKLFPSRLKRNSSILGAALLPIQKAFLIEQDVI

XylB = biological target: T2, XylB (Clostridium acetobutylicum, UniProt Q97FW4); assay: coupled pyruvate kinase / lactate dehydrogenase assay, NADH at […] nm; format: biochemical; conditions: 50 mM Tris pH 7.5, 10 mM MgSO4, 1.2 mM ATP, 1 mM D-xylulose
T2 construct: full-length coding region, N-terminal His6 tag (pET28a), E. coli BL21(DE3), Ni-NTA purified
T2 sequence (Q97FW4 1-500): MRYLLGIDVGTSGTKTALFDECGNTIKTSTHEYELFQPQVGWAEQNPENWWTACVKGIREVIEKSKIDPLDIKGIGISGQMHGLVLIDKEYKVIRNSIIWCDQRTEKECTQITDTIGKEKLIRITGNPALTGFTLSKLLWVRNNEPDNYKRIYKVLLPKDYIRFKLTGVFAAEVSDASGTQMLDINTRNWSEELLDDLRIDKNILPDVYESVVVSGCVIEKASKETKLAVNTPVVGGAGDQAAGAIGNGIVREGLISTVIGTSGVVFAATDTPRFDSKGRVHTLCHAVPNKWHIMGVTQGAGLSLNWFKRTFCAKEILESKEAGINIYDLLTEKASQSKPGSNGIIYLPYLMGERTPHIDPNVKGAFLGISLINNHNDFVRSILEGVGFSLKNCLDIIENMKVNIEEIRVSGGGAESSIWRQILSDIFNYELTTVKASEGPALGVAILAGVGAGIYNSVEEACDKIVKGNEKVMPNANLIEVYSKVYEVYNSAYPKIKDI

Compound | binding [1] | coupled pyruvate kinase / lactate dehydrogenase assay, NADH at 340 nm (XylB)
CTCCCCATATAATTTAAATTGGTTTTATTTAAAAAATATCTTACCAATATGATTTAAACTTCTCTAATAAATATATGTTTTTAAAGTTTGTTTAATAAGTTTTTTAGATAATCTACTCTTTAAATAAAAGCGCTCCTACTTTTAACTATTTATATATCTTTTATTTTAGGATAAGCTGAA (double strand) [CAC2611-xylA-II upstream fragment] | binds | –
AATCAAACCCCCTTAATTTTAAATAACTTTTTAAATATCCTTTAATAAGTCTATTTTACTTTTTTTACCTCCTACAGTCAATATGTTTTTGTAAACTTTTTCATTTTATTTATATAATGGCTTATATGGCACTGCATTTCACATAAAAATTGTAATAAAAAAAACTGCCCTTAAATTTTC (double strand) [xylB upstream fragment] | binds | –
Nc1ncnc2c1ncn2[C@@H]1O[C@H](COP(=O)(O)OP(=O)(O)OP(=O)(O)O)[C@@H](O)[C@H]1O [ATP] | – | coupling the formation of ADP to the oxidation of NADH to NAD^+
CACCAACCTTAATCACTAGTATTTTACTTTACCTTCATATTGTACCATATACTATATCCCCACAAAAGCCTTTATAAAGTTGTTTTATAAAGTATATATACTATGTATATTTTTTCTTATATAGTTTTAATACAAAAATGAAGTAAAGATATCAATTATATATCTTTACTTCACTTACGT (double strand) [xylR upstream fragment] | binds | –
